According to patent EP3470428A1 (Numab Innovation AG, dated 2019):
Where “and” joins values, the source holds several entries; their conditions need not be identical. Equal values may be shown once. Read-outs that look alike come from different tables or passages of the source. Blank lines part the entries; values can stand above or below the binder they belong to.

Legend:
[1] = target: T1, human CD137 expressed on cells (human, UniProt Q07011 24-255); test: cell-based or functional assay
[2] = target: T1, human CD137 expressed on cells; test: cell-based or functional assay; remark: listed apart in the source
human serum albumin = target: T2, human serum albumin (human, UniProt P02768 25-609); test: SPR (Biacore T200); SA amine-coupled; pH 5.5
T2 construct: Amine-coupled to a CM5 chip; assay at pH 5.5; also called HSA; human SA

[3] = target: T1, human CD137 expressed on cells; test: cell-based or functional assay; remark: listed apart in the source
[4] = target: human PD-L1-Fc chimeric protein (human, UniProt Q9NZQ7 19-239); test: SPR (Biacore T200); PD-L1-Fc captured by anti-human Fc
biotinylated human PD-L1 [5] = target: T3, biotinylated human PD-L1 (human, UniProt Q9NZQ7 19-238, limits assumed, biotinylated); test: competition ELISA; coated human PD-1 as competitor; biotinylated human PD-L1 pre-incubated with inhibitor
T3 construct: also called biotinylated PD-L1

[6] = target: T4, human PD-L1 expressed on cells (human, UniProt Q9NZQ7 19-290); test: cell-based or functional assay
biotinylated human PD-L1 [7] = target: T3, biotinylated human PD-L1; test: competition ELISA; coated human B7.1 as competitor; biotinylated PD-L1 pre-incubated with inhibitor
[8] = target: T4, human PD-L1 expressed on cells; test: cell-based or functional assay; remark: listed apart in the source
[9] = target: T1, human CD137 expressed on cells; test: cell-based or functional assay; remark: listed apart in the source
[10] = target: T1, human CD137 expressed on cells; test: cell-based or functional assay; remark: listed apart in the source
[11] = target: T1, human CD137 expressed on cells; test: cell-based or functional assay; remark: listed apart in the source
[12] = target: T1, human CD137 expressed on cells; test: cell-based or functional assay; remark: listed apart in the source
[13] = target: T1, human CD137 expressed on cells; test: cell-based or functional assay; remark: listed apart in the source
[14] = target: T1, human CD137 expressed on cells; test: cell-based or functional assay; remark: listed apart in the source
[15] = target: T1, human CD137 expressed on cells; test: cell-based or functional assay; remark: listed apart in the source

EC50 in ng/ml, CD137 activation, NFkB-luciferase Jurkat reporter assay, PD-L1 expressing CHO cells, 24h, + HSA [1]: 121 ng/mL | max. activation (%), NF-kB reporter gene, CHO-PD-L1; HSA: yes, 24h [2]: 36.2% | binding result (human serum albumin): binds | EC50 in ng/ml, CD137 activation, NFkB-luciferase Jurkat reporter assay, PD-L1 expressing CHO cells, 6h, + HSA [3]: 70.9 ng/mL | binding result [4]: binds
B1: PRO1058: 38_27_C05 sc01 scDb-i/33-03-G02 sc01 scDb-o/mxr HSA (23-13-A01-sc03, sk17sh4) (other)
chain: DIQMTQSPSSLSASVGDRVTITCQASQSINDYLAWYQQKPGKAPKLLIYKASTLASGVPSRFSGSGSGTDFTLTISSLQPEDFATYYCQQGYIITDIDNVFGTGTKVTVLGGGGGSQVQLQESGPGLVKPSETLSLTCKVSGFSFNNDYDMCWIRQPPGKGLEWIGCIDTGDGSTYYASWAKGRVTISVDSSKNQFSLKLSSVTAADTAVYYCAREAASSSGYGMGYFDLWGQGTLVTVSSGGGGSGGGGSGGGGSGGGGSIQMTQSPSSLSASVGDRVTITCQSSQSVYDNNWLAWYQQKPGKAPKLLIYRASNLASGVPSRFSGSGSGTDFTLTISSLQPEDFATYYCQGTYLSSNWYWAFGTGTKVTVLGGGGGSQVQLQESGPGLVKPSETLSLTCKVSGFSFSSGYDMCWIRQPPGKGLEWIGCVVAGSVDITYYASWAKGRVTISVDSSKNQFSLKLSSVTAADTAVYYCARKDAYSDAFNLWGQGTLVTVSSGGGGSGGGGSVVMTQSPSSLSASVGDRVTITCQASQIISSRSAWYQQKPGQPPKLLIYQASKLASGVPSRFSGSGSGTDFTLTISSLQPEDFATYYCQCTYIDSNFGAFGGGTKLTVLGGGGGSGGGGSGGGGSGGGGSEVQLVESGGGLVQPGGSLRLSCAASGFSFSSSYWICWVRQAPGKGLEWVGCVFTGDGTTYYASWAKGRFTISRDNSKNTVYLQMNSLRAEDTATYFCARPVSVYYYGMDLWGQGTLVTVSS
notes: Trispecific scTriabody (scDb-scFv)

IC50 (biotinylated human PD-L1 [5]): 0.0005 µg/mL | EC50 in ng/ml, IL-2 secretion, PBMC stimulated with SEA [6]: 40.9 ng/mL | fold higher affinity against the STR graft of clone 33-03-G02 [4]: ~2 fold | IC50 (biotinylated human PD-L1 [7]): 0.00636 µg/mL | IC50 (ng/ml), neutralization of PD-L1/PD-1 interaction, NFAT-luciferase reporter gene assay [8]: 11.1 ng/mL
B2: PRO997 (anti-PD-L1 scFv, CDR set of clone 37-20-B03 grafted on a VH4 framework) (scFv)
chain: DIQMTQSPSSLSASVGDRVTITCQASQSIGTYLAWYQQKPGKAPKLLIYRAFILASGVPSRFSGSGSGTDFTLTISSLQPEDFATYYCQSNFYSDSTTIGPNAFGTGTKVTVLGGGGGSGGGGSGGGGSGGGGSQVQLQESGPGLVKPSETLSLTCKVSGFSFNSDYWIYWIRQPPGKGLEWIGSIYGGSSGNTQYASWAQGRVTISVDSSKNQFSLKLSSVTAADTAVYYCARGYVDYGGATDLWGQGTLVTVSS

IC50 (biotinylated human PD-L1 [5]): 0.00835 µg/mL | EC50 in ng/ml, CD137 activation, NFkB-luciferase Jurkat reporter assay, PD-L1 expressing CHO cells, 24h [1]: 13.8 ng/mL | EC50 in ng/ml, CD137 activation, NFkB-luciferase Jurkat reporter assay, PD-L1 expressing CHO cells, 24h, + HSA [1]: 14.8 ng/mL | max. activation (%), NF-kB reporter gene, CHO-PD-L1; HSA: no [2]: 499% | max. activation (%), NF-kB reporter gene, HCC827 +IFNg; HSA: no [2]: 134% | max. activation (%), NF-kB reporter gene, HCC827 -IFNg; HSA: no [2]: 111% | EC50 in ng/ml, CD137 activation, NFkB-luciferase Jurkat reporter assay, HCC827 with IFNy stimulation, 24h [9]: 7.51 ng/mL | EC50 in ng/ml, CD137 activation, NFkB-luciferase Jurkat reporter assay, HCC827 without IFNy stimulation, 24h [9]: 9.52 ng/mL | EC50 in ng/ml, CD137 activation, NFkB-luciferase Jurkat reporter assay, CHO-PD-L1 cells [10]: 11.7 ng/mL | EC50 in ng/ml, CD137 activation, NFkB-luciferase Jurkat reporter assay, PD-L1 expressing CHO cells, 6h [3]: 7.84 ng/mL | EC50 in ng/ml, CD137 activation, NFkB-luciferase Jurkat reporter assay, PD-L1 expressing CHO cells, 6h, + HSA [3]: 7.92 ng/mL | EC50 in ng/ml, CD137 activation, NFkB-luciferase Jurkat reporter assay, CHO-PD-L1 cells [11]: 5.13 ng/mL and 4.86 ng/mL and 6.3 ng/mL | EC50 in ng/ml, CD137 activation, NFkB-luciferase Jurkat reporter assay, HCC827 cells without IFNg [12]: 11.5 ng/mL and 13.1 ng/mL and 13 ng/mL | EC50 (ng/ml), IL-2 secretion by PBMC; anti-CD3 1 ug/ml, 50000 PD-L1 expressing CHO cells/well [13]: 12.8 ng/mL | EC50 (ng/ml), IL-2 secretion by PBMC; anti-CD3 1 ug/ml, 100000 PD-L1 expressing CHO cells/well [13]: 86.2 ng/mL | EC50 (ng/ml), IL-2 secretion by PBMC; anti-CD3 1 ug/ml, 200000 PD-L1 expressing CHO cells/well [13]: 80.6 ng/mL | EC50 (ng/ml), IL-2 secretion by PBMC; anti-CD3 2 ug/ml, 50000 PD-L1 expressing CHO cells/well [13]: 52 ng/mL | EC50 (ng/ml), IL-2 secretion by PBMC; anti-CD3 2 ug/ml, 100000 PD-L1 expressing CHO cells/well [13]: 41.9 ng/mL | EC50 (ng/ml), IL-2 secretion by PBMC; anti-CD3 2 ug/ml, 200000 PD-L1 expressing CHO cells/well [13]: 30.1 ng/mL | IC50 (biotinylated human PD-L1 [7]): 0.0122 µg/mL | IC50 (ng/ml), neutralization of PD-L1/PD-1 interaction, NFAT-luciferase reporter gene assay [8]: 137 ng/mL | EC50 in ng/ml, CD137 activation, NFkB-luciferase Jurkat reporter assay, HCC827 cells stimulated with IFNg [14]: 9.27 ng/mL and 8.88 ng/mL and 9.23 ng/mL | EC50 in ng/ml, IL-2 secretion, PBMC stimulated with SEA [15]: 39.9 ng/mL
B3: PRO885: 38-02-A04 sc01 scDb-i/33-03-G02 sc01 scDb-o (bispecific antibody)
chain: DIQMTQSPSSLSASVGDRVTITCQASQSINDYLAWYQQKPGKAPKLLIYKASTLASGVPSRFSGSGSGTDFTLTISSLQPEDFATYYCQQGYIITDIDNVFGTGTKVTVLGGGGGSQVQLQESGPGLVKPSETLSLTCKVSGFSFSNSYWICWIRQPPGKGLEWIGCTFVGSSDSTYYANWAKGRVTISVDSSKNQFSLKLSSVTAADTAVYYCARHPSDAVYGYANNLWGQGTLVTVSSGGGGSGGGGSGGGGSGGGGSIQMTQSPSSLSASVGDRVTITCQASQSINNVLAWYQQKPGKAPKLLIYRASTLASGVPSRFSGSGSGTDFTLTISSLQPEDFATYYCQSSYGNYGDFGTGTKVTVLGGGGGSQVQLQESGPGLVKPSETLSLTCKVSGFSFSSGYDMCWIRQPPGKGLEWIGCVVAGSVDITYYASWAKGRVTISVDSSKNQFSLKLSSVTAADTAVYYCARKDAYSDAFNLWGQGTLVTVSS
notes: anti-PD-L1xCD137 scDb, CDR grafts of both domains
